No end group written: not given here.
How the values were obtained:
[1] = biological target: T1, Toronto VP1 peptide 517-533 (NoV Toronto strain, also: biotinylated (position not given here)); assay: ELISA on biotinylated peptide
T1 construct: 17-mer of the P domain peptide library
T1 peptide: ESWVNPFYTLAPMGTGN
Procedure: (§1) For this assay, a peptidic library of 67 peptides corresponding to the P domain of the VP1 amino acid sequence from NoV Toronto strain was synthetized. The peptides were 17 amino acids long, with 5 amino acids overlapping with the previous and the next peptide of the sequence. Neutravidin coated plates (PIERCE®) were used for this assay. The plates were coated with each biotinylated peptide in duplicates (2 μl of peptide/100 μl of PBS 0.1% BSA per well) overnight at 4° C. Then, after washing the plates, 100 ng/well of 7.5 VHH were added and the plates were incubated for 2 hours at room temperature. The plates were washed and incubated with rabbit anti-VHH serum (1/8,000) and HRP-conjugated goat anti-rabbit immunoglobulin G (1:2,000) (KPL). The signal was developed with ABTS/H₂O₂.

[2] = biological target: T2, Toronto VP1 peptide 507-523 (NoV Toronto strain, also: biotinylated (position not given here)); assay: ELISA on biotinylated peptide
T2 construct: 17-mer of the P domain peptide library
T2 peptide: TVPPNGYFRFESWVNPF
Procedure: as §1

[3] = biological target: T3, Toronto VP1 peptide 522-538 (NoV Toronto strain, also: biotinylated (position not given here)); assay: ELISA on biotinylated peptide
T3 construct: 17-mer of the P domain peptide library
T3 peptide: PFYTLAPMGTGNGRRRI
Procedure: as §1

[4] = biological target: T4, Toronto VP1 peptide 512-528 (NoV Toronto strain, also: biotinylated (position not given here)); assay: ELISA on biotinylated peptide
T4 construct: 17-mer of the P domain peptide library, captured on neutravidin plates
T4 peptide: GYFRFESWVNPFYTLAP
Procedure: as §1

[5] = biological target: T5, Hu/NoV/GII.4/MD145-12/1997/U.S. VLP (human norovirus GII.4); assay: VLP ELISA
T5 construct: mature; baculovirus VLP; VP2 may be present

[6] = biological target: T6, Hu/GII.6/Bethesda/2012/U.S. VLP (human norovirus GII.6); assay: VLP ELISA
T6 construct: mature; baculovirus VLP; VP2 may be present

[7] = biological target: T7, Hu/NoV/GII.4/CHDC4871/1977/U.S. VLP (human norovirus GII.4); assay: VLP ELISA
T7 construct: mature; baculovirus VLP; VP2 may be present

[8] = biological target: T8, Hu/NoV/GII.2/Henryton/1971/U.S. VLP (human norovirus GII.2); assay: VLP ELISA
T8 construct: mature; baculovirus VLP; VP2 may be present

[9] = biological target: T9, Hu/NoV/GII.3/CHDC4031/1988/U.S. VLP (human norovirus GII.3); assay: VLP ELISA
T9 construct: mature; baculovirus VLP; VP2 may be present

[10] = biological target: T10, Hu/NoV/Snow Mountain/GII.2/U.S. VLP (human norovirus GII.2); assay: VLP ELISA
T10 construct: mature; baculovirus VLP; VP2 may be present

[11] = biological target: T11, Hu/NoV/GII.4/MD2004/2004/U.S. VLP (human norovirus GII.4); assay: VLP ELISA
T11 construct: mature; baculovirus VLP; VP2 may be present; also called MD2004 VLP

[12] = biological target: T12, Hu/NoV/GII.4/HS-191/2001/U.S. VLP (human norovirus GII.4); assay: VLP ELISA
T12 construct: mature; baculovirus VLP; VP2 may be present

[13] = biological target: T13, Hu/NoV/GII.7/DC119/U.S. VLP (human norovirus GII.7); assay: VLP ELISA
T13 construct: mature; baculovirus VLP; VP2 may be present

[14] = biological target: T14, Hu/NoV/GII.14/M7/1999/U.S. VLP (human norovirus GII.14); assay: VLP ELISA
T14 construct: mature; baculovirus VLP; VP2 may be present

[15] = biological target: T15, Hu/NoV/GII.1/Hawaii/1971/U.S. VLP (human norovirus GII.1); assay: VLP ELISA
T15 construct: mature; baculovirus VLP; VP2 may be present

[16] = biological target: T16, Hu/NoV/GII.4/RockvilleD1/2012/U.S. VLP (human norovirus GII.4); assay: VLP ELISA
T16 construct: mature; baculovirus VLP; VP2 may be present

[17] = biological target: T5, Hu/NoV/GII.4/MD145-12/1997/U.S. VLP; assay: cell-based or functional assay

B1: VHH 7.5 (VHH)
VHH: QVKLQESGGGLVQAGESLRLSCAASGSNFSINGVGWYRQAPGKQRELVAGITNGGYTSYADSVKGRFTISTDNAKNTVYLQMNSLRPEDTAVYYCNANFQIHRSGADYVRNYWGQGTQVTVSA
notes: llama VHH, MD2004 library; pHEN6, C-terminal His6 tag; also called clone 7.5
Does B1 bind [1]?
Result: binds

Does B1 bind [2]?
Result: no binding (tested: 100 ng/well)

Does B1 bind [3]?
Result: no binding (tested: 100 ng/well)

Does B1 bind [4]?
Result: binds

And the “minimum concentration of VHH able to recognize 100 ng of VLP” value (“minimum concentration of VHH able” below) [5]?
The value was 0.5 ng/well.

And the “minimum concentration of VHH able” value [6]?
The value was 1 ng/well.

And the “minimum concentration of VHH able” value [7]?
Its value is 2 ng/well.

And the “minimum concentration of VHH able” value [8]?
Its value is 1 ng/well.

What about the “minimum concentration of VHH able” value [9] of the same binder?
Its value is 1 ng/well.

What about the “minimum concentration of VHH able” value [10] of the same binder?
Its value is 2 ng/well.

And the “minimum concentration of VHH able” value [11]?
The value was 0.5 ng/well.

And the “minimum concentration of VHH able” value [12]?
Its value is 2 ng/well.

And the “minimum concentration of VHH able” value [13]?
The value was 1 ng/well.

What about the “minimum concentration of VHH able” value [14] of the same binder?
Its value is 1 ng/well.

What about the “minimum concentration of VHH able” value [15] of the same binder?
The value was 1 ng/well.

And the “minimum concentration of VHH able” value [16]?
The value was 0.5 ng/well.

And the “HAI titer, B Rh+ RBC” value [17]?
The value was 0.78 µg/mL.
